The source of these data is patent US20110236390A1 (Janssen / Centocor, published 2011).

Assay [1] has as its target T1, cynomolgus IL-17A (cynomolgus, UniProt Q16552 24-155 (human entry), limits assumed).
T1 chain: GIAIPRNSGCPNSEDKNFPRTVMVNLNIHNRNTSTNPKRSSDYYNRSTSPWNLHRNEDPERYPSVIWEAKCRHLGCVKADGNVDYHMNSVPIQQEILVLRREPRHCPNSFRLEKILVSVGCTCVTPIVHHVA
Briefly: cell-based or functional assay.

The target of assay [2] is T1, cynomolgus IL-17A. Briefly: SPR Biacore 3000, antibody captured, IL-17 in solution. (In general: In SPR one partner is held on a chip, and binding of the other changes the refractive index at the surface.)
Method: (§1) Affinity measurements using Surface Plasmon Resonance (SPR) were performed using a Biacore 3000 optical biosensor (Biacore).
Assay [3] deals with T1, cynomolgus IL-17A. Briefly: competition ELISA: mAb against biotinylated cyno IL-17A binding to coated IL-17RA-Fc.
Method: Clear maxisorp plates were coated with 100 μl/well of 2.5 μg/ml human IL-17RA-Fc (R&D Systems, Minneapolis, Minn.) in 0.1 M sodium carbonate-bicarbonate buffer, pH 9.4 and incubated overnight at 4° C. […] The signal was detected with 100 μl of 1:10,000 dilution of 1 mg/ml SA-HRP (Jackson Immunoresearch, West Grove, Pa.) for 20 minutes at room temperature (RT) followed by 100 μl/well of OPD substrate (Sigma-Aldrich Corp., St. Louis, Mo.).
The target of the next assay is T2, human IL-17A (human, UniProt Q16552 24-155).
T2 sequence: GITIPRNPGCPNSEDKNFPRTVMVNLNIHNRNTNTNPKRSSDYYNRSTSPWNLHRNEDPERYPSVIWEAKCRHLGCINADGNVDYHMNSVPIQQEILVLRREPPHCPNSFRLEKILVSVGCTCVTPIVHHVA
Briefly: binding ELISA, IL-17A protein coated on micro-titer plate, serial dilutions of labeled mAb1926, 37 C 2 h. (In general: An ELISA detects its analyte on a solid surface through an enzyme-linked reagent.)

Assay [4] addresses T1, cynomolgus IL-17A. Briefly: SPR Biacore 3000, Fab captured, IL-17 in solution.
Method: as §1

From the text for human IL-17A: Human, mouse and rat IL-17A proteins were coated on the micro-titer plates.

B1: mAb1926 (antibody, human IgG1, lambda, V domains shown)
VH: QVQLLESGGGLVQPGGSLRLSCAASGFTFSSYAMSWVRQAPGKGLEWVSTISMTSGFTYYADSVKGRFTISRDNSKNTLYLQMNSLRAEDTAVYYCARQLMLDVWGQGTLVTVSS
VL: QSVLTQPPSVSVAPGQTARISCSGDNLGDKYANWYQQKPGQAPVLVIYDDIDRPSGIPERFSGSNSGNTATLTISGTQAEDEADYYCGSYDFFLGMIVFGGGTKLTVLG
notes: Framework-engineered mAb; also called mAbtr1926; engineered form of MOR7700
By Kd is commonly meant a measure of binding affinity in units of concentration. Read a low Kd as tighter binding. By IC50 is commonly meant the concentration that gives 50% inhibition. Higher therefore signals weaker potency in that assay. Take B1: the “IL-6 production (NHDF), IC50” value with cynomolgus IL-17A [1] was 67 pM. In the assay with cynomolgus IL-17A [2], this molecule registered a Kd of 0.018 nM and a Stoichiometry of 2.3 dimers per anti-IL-17. Also, the IC50 with cynomolgus IL-17A [3] is 0.053 nM. For the same molecule, the binding result in the assay with human IL-17A is “binds”.

B2: Fab6468, a recombinant His6-tagged Fab of mAb6785 (Fab, V domains shown)
VH: QVQLLESGGGLVQPGGSLRLSCAASGFTFSSYAMSWVRQAPGKGLEWVSTISLTSGFTYYADSVKGRFTISRDNSKNTLYLQMNSLRAEDTAVYYCARQLTLDVWGQGTLVTVSS
VL: QSVLTQPPSVSVAPGQTARISCSGDNLGDKYANWYQQKPGQAPVLVIYDDIDRPSGIPERFSGSNSGNTATLTISGTQAEDEADYYCGSYDFFLGMIVFGGGTKLTVLG
Regarding B2, the Kd with cynomolgus IL-17A [4] was found to be 0.205 nM.
